This note sets out measurements from PMC7763993, “Depletion of Boric Acid and Cobalt from Cultivation Media: Impact on Recombinant Protein Production with Komagataella phaffii” (Bioengineering, 2020).

Substrate in this series: CCn1c(=NN=c2sc3cc(S(=O)(=O)O)ccc3n2CC)sc2cc(S(=O)(=O)O)ccc21
In words: purified protein. The following applies: H2O2 co-substrate, 50 mM phosphate citrate pH 5, 30 °C, 0.05-7 mM ABTS, enzyme from cultivation F5 (glass, with Co and boric acid). The class given is biochemical, Armoracia rusticana.

B1: horseradish peroxidase isoenzyme A2A (HRP) (Armoracia rusticana) (protein)
chain: QLNATFYSGTCPNASAIVRSTIQQAFQSDTRIGASLIRLHFHDCFVDGCDASILLDDSGSIQSEKNAGPNANSARGFNVVDNIKTALENTCPGVVSCSDILALASEASVSLTGGPSWTVLLGRRDSLTANLAGANSAIPSPFEGLSNITSKFSAVGLNTNDLVALSGAHTFGRARCGVFNNRLFNFSGTNGPDPTLNSTLLSSLQQLCPQNGSASTITNLDLSTPDAFDNNYFANLQSNNGLLQSDQELFSTLGSATIAVVTSFASNQTLFFQAFAQSMINMGNISPLTGSNGEIRLDCKKVDGS
notes: secreted from K. phaffii BSYBG11 MutS, codon-optimized gene; glycosylated, negative AIEX flow-through; monomeric, 2 calcium, heme
For B1, the Km (commonly the concentration of substrate that gives half-maximal velocity) came out at 2110 ± 350 µM.
